The text below walks through data of a protein production outcome set (Wang et al. 2014).

The nature of the data set: label from the status in PepcDB records.

As to “MLNKTASYSEIEMSVVVPKDSKITNIEAVSKLAAPVKNDTSNITDLIEHIKSEKGISITPQKTDSYQDAYNRIKSGDSQAMVLNNAYVSLIELSTPDFKSQIKTIYTYKIKKKINRKNTNHKEGVFNIYISGIDTFGSISTVSRSDVNIIMTVNTNTHKVLLTTTPRDAYVKIPDGGGNQYDKLTHAGLYGVETSMKTLENLYDINLDYYARINFSSFLKLIDLLGGVTVYNDQAFTSKHGNFDFPVGQVTLNSEQALGFVRERYSLQGGDNDRGRNQEKVIAAIINKLASSQSVTKLNSITSQLQTSVQTNMTIDNINDLINNQLSTGQRFTVESQALTGHGSTGELPSYAMPGAQLYMMSIDQSSLSNAKSKIKNTMEELEHHHHHH”, the protein production result is “not failed”.
The value for “MLNKVLTHLDENIEKSLERLFSLLRFQSISTDFAYKDECRKAADWLVEDLKSIGFKASRRDTSGHPMVVGHHPGPSDDCLHVLFYGHYDVQPVDPLNLWEDDPFTPSLKEREGEKVICARGASDDKGQLMTFIEACRAFKKETGQLPVRVTVLFEGEEESGSSSLVPFLKANKDELKADCALVCDTSMWDADTPSVSVALRGILGEEIIITAANRDLHSGYFGGAAANPIRILTKVLAGLHDENNRVTLPGFYDGVEETPPHILQSWNALNCTAENFLGPIGLSLPAGEKGRSVLELVWARPTAEINGISGGYEGEGIKTVIASQASAKVSFRLVHKQDPEKIRQAFRDYVCSLIPADCSVVFKEHGASPAIQLPYDSPFIKATKDALSQEWNNPALLTVMGGSIPIVADFQSILDMETLLVGFALADDRIHSPNEKYNLKSFHKGQRSWARILATLAKTGG” was “not failed”.
The value for “MLNNKRLFTSESVTEGHPDKIADQVSDAILDAILKDDPNARVACETTVTTGMALIAGEISTTTYVDIPKVVRETIKEIGYTRAKYGYDYETMAILTAIDEQSPDIAQGVDKALEYRDKDSEEEIEATGAGDQGLMFGYATNETETYMPLAIYLSHQLAKRLSDVRKDGTLNYLRPDGKVQVTVEYDENDNPVRIDTIVVSTQHAEDVTLEQIQEDIKAHVIYPTVPENLINEQTKFYINPTGRFVIGGPQGDAGLTGRKIIVDTYGGYARHGGGCFSGKDPTKVDRSAAYAARYVAKNIVAAGLADQCEVQLAYAIGVAEPVSIAIDTFGTGKVSEGQLVEAVRKHFDLRPAGIIKMLDLKQPIYKQTAAYGHFGRTDVLFPWEKLDKVEELKDAVK” was “failed”.
The value for “MLNPFEKLQIPPKANQTIDTMLKRLPKIGGTTVRDREIRRLKEYYERIKKYYDFVEQFPKIDELHPFYLEATRIMTDINKLRICLSVTKKTSVISMKILKKYINQIRKSPENESNRIMRQAFGRVSSVLRKSSECIDRVIDVAKELKKIQGIDPTLPTIVVAGPPNVGKSTLVSKISTAKPEIASYPFTTKEVHVGHVILDDFRIQVIDTPGILDRPEAERNRIERKATNAIRNLNGIIVFMFDSSISSVLSVEGQIELFREVKLLKKIVIPVINKIDEKYEEYYKKIVDFLLSEGNEWHEISAEKGIGIDKLKEELFNLVKSSGTNEVSRD” was “failed”.
On to “MLNQSNELNAWDRDHFFHPSTHMGTHARGESPTRIMAGGEGVTVWDNNGRKSIDAFAGLYCVNVGYGRQKIADAIATQAKNLAYYHAYVGHGTEASITLAKMIIDRAPKGMSRVYFGLSGSDANETNIKLIWYYNNVLGRPEKKKIISRWRGYHGSGVMTGSLTGLDLFHNAFDLPRAPVLHTEAPYYFRRTDRSMSEEQFSQHCADKLEEMILAEGPETIAAFIGEPILGTGGIVPPPAGYWEKIQAVLKKYDVLLVADEVVTGFGRLGTMFGSDHYGIKPDLITIAKGLTSAYAPLSGVIVADRVWQVLVQGSDKLGSLGHGWTYSAHPICVAAGVANLELIDEMDLVTNAGETGAYFRAELAKAVGGHKNVGEVRGDGMLAAVEFVADKDDRVFFDASQKIGPQVATALAASGVIGRAMPQGDILGFAPPLCLTREQADIVVSKTADAVKSVFANL”, for which the protein production entry was “not failed”.
Consider “MLNTFMFPGQGSQAKGMGGALFDRFADLTAQADAVLGYSIRALCVDDPRDELGRTQFTQPALYVVNALTYYAKCEDSGETPDFLAGHSLGEFNALLAAGCFDFETGLKLVARRAELMSQARDGAMAAIVNASREQIERTLDEHGLVDTAIANDNTPSQLVISGPAHEIARAEALFQHDRVRYLRLNTSGAFHSKFMRPAQQAFAAHLQSFRLADPAIPVISNVSARPYENGRVSEGLAQQIASPVRWCESIRYLLALAAERGEAIEFTELGHGDVLTRLVHTIRRQTPAPAAAATSARARPTPPGEPERPAQQTAAAPRASDSASASLGAAERVAAWNRDYPVGTRVRSSLIHDDVLETRTPATVLFGHRAAVYMKGYNGYFDLAEVTPA”, for which the protein production entry is “not failed”.
Take “MLPDDVNQADVLADVTAAFYRYEKALTGNDVAVLDELFWHDEKTVRYGAGENLYGIEEIRAFRLARPSAGLDRALRNTVITTYGHDMAVASTEFTRTGSTKIGRQMQTWVKMPEGWRIVAAHVSLMSE”: the protein production entry is “not failed”.
Then “MLPKIIDLFSGCGGLALGFEKAGFDIVAGIELMPEACKTISYNLSWRYGKKETHICGDITEIEASVFKNSFGDEGCIVIGGPPCQAYSMAGRGKLRSLGEDRVNIKDARGYLYQDFLRFVFELEARAVVMENVPESTNFGGKNIPEIVCTELTKKGYKAYWTILNSADYGVPQVRERVFVVAIKGDEGKEIKLPNPTHRNEVDVLTQHQKRFEGYKQCQFFVEPNGTTDELKPWVTVGDAFSDLPEVFPTADSKYKLVSLNIEYPYKTEAQNEYQELMRTWYGKEGFGVSANAFRRNTRDFPIFERMQQGDNYIAATKIAEELFYEEAKLFGYEKDSEEYISLYNKMVPQYDKDKFENKWKRLDETKPSHTLVAHLAKDTYSHIHPIEPRGITVREAARLQSFPDDFFFDCSMGDAFKQIGNAVPPLLAYGVARTVLNTFEEE”, with “failed”; and “MLPSRKTKRVFSCDFTPGRKRRRCVVVPSSVSPVPENTTGADLLDSIPDDLVISILCKLGSTSRCPADFINVLLTCKRLKGLAMNPIVLSRLSPKAIAVKAHNWSEYSHRFLKRCVDAGSLEACYTLGMIRFYCLQNRGNGASLMAKAAISSHAPALYSLAVIQFNGSGGSKNDKDLRAGVALCARAAFLGHVDALRELGHCLQDGYGVPQNVSEGRRFLVQANARELAAVLSSGIQARSTWLSLSQPPPPVVPNHGQQTCPLLSDFGCNVPAPETHPANRFLADWFAVRGGDCPGDGLRLCSHAGCGRPETRKHEFRRCSVCGVVNYCSRACQALDWKLRHKMDCAPVQRWLEEGDGGEGNVQIDGNGNGDNVLLPMS”, with “failed”; and “MLPVLETTAHSPLTIVWFVLITVLWVGFFFLEGFDFGVAMLLPFLGRDDKDRRLMVNTIGPTWDGNEVWLLTAGGATFAAFPGWYATMFSGLYLPLLLVLLGLIVRGVAFEYRSKNPSSSWRNAFDWMATIGSFLPTLVLGVGFANFVRGLAVGPHSTPDGGTAPLVTTSFWGLFTPFALIGGILFVVLFCAHGANFVALKTMGDMHDRARKTSAKLGWIATVVALVWALMFNIMYVTRDGRQVLTWIICLLVVVLLAAGSAVVAKGREGLAFLCTALGIALMIVACMFAMYGNLGYRPSGIAFDMWIASATGRTLKIMTISACVFVPIVLAYQVWSYWVFRKRLTREAIPDTAVAA”, with “failed”.
The value for “MLQHRCPVRRILVHYIAHWSRLRSILPTFAAIVRRPFRVCKTMNQPSSKPTPAVTFRLSKAELVLVFITMLWGGTFLLVHNVMTVSGPMFFVGLRFAAAALFVGVVSARALPGLTFTELKAGMLIGVSIMLGYGLQTMGLQTISSSQSAFITALYVPFVPLLQWLVLGRRPGLMPSMGICLAFIGLMLLAGPEGGSLRFSEGELVTLISAVAIAGEIILISRYAGQVDVRRVTVVQLATASLLAFLMIVPTQERIPDFSWLLLASAVGLGAMSAVIQVAMNWAQKSVSPTRATLIYAGEPVWAGIVGRLAGERLPGVALLGGLLIVVAVVVSELKVRRPRETVETRDVQNPGERQAGL” was “failed”; that for “MLQIIVPMAGAGSRFAVAGYTDPKPLIPVHGVPMIKVVIDNLTPDCPHRFIFICQAEQVAAYGLREKLNAWAPGCGIVELGGLTGGAACTVYAARHLINYDQQVMIANSDQYVDVDINAYLHAMNECDAAGLIMTMKASDPKWSFVGFDSQGHINRVVEKEVISDEATVGIYNFRSGGQLVSAIEAMVLKDLRVNGEFYVAPAYNELIEQGAKVIHYSIGAEGHGMYGLGIPVDLNLFLSLPLSRQAASGVGNLEHHHHHH” was “failed”.
